# According to patent publication US20250332297A1, “DLL3-SPECIFIC BINDING CONSTRUCTS AND THEIR USE IN RADIOTHERAPY” (MOLECULAR PARTNERS AG, priority 2024, published 2025):
# B1: MAM279 conjugate: SEQ ID NO: 15 conjugated to DOTAM-maleimide, labelled with Pb-212 (natural lead in PK studies) (conjugate)
# chain: GSDLGKKLLEAARAGQDDEVRELLKAGADVNAKDYFSHTPLHLAARNGHLKIVEVLLKAGADVNAKDFAGKTPLHLAADAGHLEIVEVLLKAGADVNAQDIFGKTPADIAADAGHEDIAEVLQKAAGSPTPTPTTPTPTPTTPTPTPTGSDLGKKLLAAAAQGQDDEVRELLKAGANVNAKDLFGYTPLHLAAWRGHLEIVEVLLKAGADVNAKDAAGETPLHLAAWFGHLEIVEVLLKAGADVNAQDLQGKTPADLAAKEGHEDIAEVLQKAAGSGSC
# modifications: DOTAM-maleimide, Pb-212 label; Ankyrin repeat protein with tag (GS-MAM279-tag)
# B2: MAM282: Two domain (2D) ankyrin repeat protein: serum albumin-specific domain (SEQ ID NO: 7), PT linker, DLL3-specific domain (SEQ ID NO: 2) (protein)
# chain: DLGKKLLEAARAGQDDEVRELLKAGADVNAKDYFSHTPLHLAARNGHLKIVEVLLKAGADVNAKDFAGKTPLHLAADAGHLEIVEVLLKAGADVNAQDIFGKTPADIAADAGHEDIAEVLQKAAGSPTPTPTTPTPTPTTPTPTPTGSDLGKKLLAAAREGQDDEVRELLKAGADVNAKDIWGQTPLHIAAWFGHLEIVEVLLKAGADVNAKDQTGHTPLHLAAKFGHLEIVEVLLKAGADVNAQDLLGRTPADLAAEEGHEDIAEVLQKAA
# modifications: Ankyrin repeat protein (MAM282)
# B3: MAM279: Two domain (2D) ankyrin repeat protein: serum albumin-specific domain (SEQ ID NO: 7), PT linker, DLL3-specific domain of MAM093 (protein)
# chain: DLGKKLLEAARAGQDDEVRELLKAGADVNAKDYFSHTPLHLAARNGHLKIVEVLLKAGADVNAKDFAGKTPLHLAADAGHLEIVEVLLKAGADVNAQDIFGKTPADIAADAGHEDIAEVLQKAAGSPTPTPTTPTPTPTTPTPTPTGSDLGKKLLAAAAQGQDDEVRELLKAGANVNAKDLFGYTPLHLAAWRGHLEIVEVLLKAGADVNAKDAAGETPLHLAAWFGHLEIVEVLLKAGADVNAQDLQGKTPADLAAKEGHEDIAEVLQKAA
# modifications: Ankyrin repeat protein (MAM279)
# B4: MAM283: Two domain (2D) ankyrin repeat protein: serum albumin-specific domain (SEQ ID NO: 7), PT linker, DLL3-specific domain (SEQ ID NO: 3) (protein)
# chain: DLGKKLLEAARAGQDDEVRELLKAGADVNAKDYFSHTPLHLAARNGHLKIVEVLLKAGADVNAKDFAGKTPLHLAADAGHLEIVEVLLKAGADVNAQDIFGKTPADIAADAGHEDIAEVLQKAAGSPTPTPTTPTPTPTTPTPTPTGSDLGKKLLAAAADGQDDEVRELLQAGADVNAKDLFGYTPLHLAAWRGHLEIVEVLLEAGADVNAKDAAGETPLHLAAWFGHLEIVEVLLEAGADVNAQDVQGKTPADLAAKEGHEDIAEVLQQAA
# modifications: Ankyrin repeat protein (MAM283)
# B5: Rova: Rova antibody, DLL3-binding benchmark antibody used as positive control and comparison (antibody, chains of the INN, looked up, V domains shown)
# VH: QVQLVQSGAEVKKPGASVKVSCKASGYTFTNYGMNWVRQAPGQGLEWMGWINTYTGEPTYADDFKGRVTMTTDTSTSTAYMELRSLRSDDTAVYYCARIGDSSPSDYWGQGTLVTVSS
# VL: EIVMTQSPATLSVSPGERATLSCKASQSVSNDVVWYQQKPGQAPRLLIYYASNRYTGIPARFSGSGSGTEFTLTISSLQSEDFAVYYCQQDYTSPWTFGQGTKLEIK
# Experiments:
# [1] = Pharmacokinetic analysis in WT BALBc mice (serum, ELISA); assay type: in vivo, mouse
# From the text: The pharmacokinetic (PK) properties of lead-labelled DARPin (MAM160, MAM279, MAM282, MAM283) conjugates were investigated in mice, including to determine the terminal half-life (or serum half-life) of these conjugates.
# In brief, DARPins MAM279, MAM283, MAM160 and MAM282 were conjugated to the chelator DOTAM, via a C-terminal Cysteine containing tag and a connector, as described in Example 3. The conjugates were then labelled with natural lead (Pb). The protein components of the conjugates corresponded to SEQ ID NOs: 15 to 18, respectively. These lead-labelled DARPin conjugates were injected i.v. at 1 mg/kg into WT BALBc mice. Serum was collected 2 min, 10 min, 30 min, 1 h, 4 h, 24 h, 48 h, and 72 h post-injection. DARPins were detected and measured by ELISA. The data were expressed as the DARPin concentration in serum (nmol/L).
# In brief, lead-labelled MAM279 conjugate, as described in Example 13, was injected i. at 0.1 mg/kg or at 1 mg/kg into the tail vein of WT BALBc mice. Serum was collected 2 min, 10 min, 30 min, 1 h, 4 h, 24 h, 48 h, and 72 h post-injection for MAM279 conjugate injected at 1 mg/kg, and 2 min, 30 min, 4 h, 24 h, 30 h, 48 h, 72 h, 96 h, and 168 h post-injection for MAM279 conjugate injected at 0.1 mg/kg. DARPins were detected and measured by ELISA. The data were expressed as the DARPin concentration in serum (nmol/L).
# In brief, natural lead-labelled MAM279 conjugate, as described in Example 13, was injected i.v. at different doses (0.001 mg/kg, 0.01 mg/kg, 0.1 mg/kg, or 1 mg/kg) into the tail vein of WT BALBc mice. Similarly, unconjugated Rova was injected iv. at 1 mg/kg into the tail vein of WT BALBc mice. Serum was collected 2 min, 10 min, 30 min, 1 h, 4 h, 24 h, 48 h, and 72 h post-injection for MAM279 conjugate injected at 1 mg/kg, and 2 min, 30 min, 4 h, 24 h, 30 h, 48 h, 72 h, 96 h, and 168 h post-injection for MAM279 conjugate injected at 0.1 mg/kg, 0.01 mg/kg and 0.001 mg/kg. Serum was collected 2 min, 30 min, 4 h, 24 h, 30 h, 48 h, 72 h, 96 h, and 168 h post-injection for Rova antibody injected at 1 mg/kg. DARPins and Rova were detected and measured by ELISA. Rova PK characteristics were calculated with time points between 4 h and 168 h and MAM279 conjugate PK characteristics were calculated with time points between 4 h and 72 h. The data were expressed as the DARPin or Rova concentration in serum (nmol/L). Results are shown in FIGS. 19A and 19B and Table 22.
# [2] = molecular target: T1, mouse serum albumin (Mus musculus, UniProt P07724); assay: SPR binding to mouse serum albumin (Example 1); conditions: immobilized MSA, 1:1 Langmuir, Table 2
# T1 construct: purchased Sigma-Aldrich
# T1 sequence (P07724 25-608): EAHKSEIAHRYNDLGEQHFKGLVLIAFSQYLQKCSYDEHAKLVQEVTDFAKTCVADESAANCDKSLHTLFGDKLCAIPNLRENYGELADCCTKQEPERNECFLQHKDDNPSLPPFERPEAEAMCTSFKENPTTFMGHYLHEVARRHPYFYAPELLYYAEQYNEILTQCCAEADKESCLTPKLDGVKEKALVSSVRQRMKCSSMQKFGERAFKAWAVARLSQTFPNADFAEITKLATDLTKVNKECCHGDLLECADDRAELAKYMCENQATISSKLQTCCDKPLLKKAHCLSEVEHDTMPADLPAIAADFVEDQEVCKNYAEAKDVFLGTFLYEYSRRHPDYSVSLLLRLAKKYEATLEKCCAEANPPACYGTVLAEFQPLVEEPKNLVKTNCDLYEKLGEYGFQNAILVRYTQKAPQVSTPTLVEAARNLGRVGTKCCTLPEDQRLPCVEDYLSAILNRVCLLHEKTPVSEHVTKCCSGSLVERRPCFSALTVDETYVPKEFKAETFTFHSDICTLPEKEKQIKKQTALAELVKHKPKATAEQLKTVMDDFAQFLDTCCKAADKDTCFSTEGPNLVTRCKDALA
# Method: (§1) Similarly, a SPR assay was used to determine the binding kinetics to human or mouse serum albumin. […] All analytes (3-fold dilution ranging from 1000-12.35 nM) were injected in succession for 240 s (25 μl/min) and dissociation was recorded for 600 s (25 μl/min). […] The obtained SPR traces were used to determine the ankyrin repeat protein-serum albumin interaction parameters, summarized in Table 2.
# [3] = molecular target: human serum albumin (Homo sapiens, UniProt P02768); assay: SPR binding to human serum albumin (Example 1); set-up: purchased CSL; conditions: immobilized HSA, 1:1 Langmuir, Table 2
# Method: as §1
# [4] = natural lead-labelled DOTAM conjugate 1 mg/kg i.v., Tables 16, 17
# [5] = 1 mg/kg i.v., MAM279 natural lead-labelled conjugate (time points 4-72 h), Rova unconjugated (4-168 h), Table 22
# [6] = 1 mg/kg i.v., MAM279 natural lead-labelled conjugate, Rova unconjugated, Table 22
# [7] = natural lead-labelled DOTAM conjugate 0.1 mg/kg i.v., Table 17
# [8] = natural lead-labelled conjugate 0.001 mg/kg i.v., Table 22
# [9] = natural lead-labelled conjugate 0.01 mg/kg i.v., Table 22
# [10] = natural lead-labelled conjugate 0.1 mg/kg i.v., Table 22
molecule,measurement,setting,value
B1,serum half-life,[1]; 0.001 mg/kg i.v.,39.9 h
same,serum half-life,[1]; 0.01 mg/kg i.v.,33.1 h
same,serum half-life,[1]; 0.1 mg/kg i.v.,32.8 h
same,serum half-life,[1]; 1 mg/kg i.v.,30.5 h
B2,Kd,[2],335 nM
same,Koff MSA,[2],0.0354 s⁻¹
same,Kon MSA,[2],105900 M⁻¹ s⁻¹
same,AUCINF_pred,[1]; [4],8.435 µM·h
same,AUC_% Back_Ext_pred,[1]; [4],0%
same,AUC_% Extrap_pred,[1]; [4],17%
same,AUClast,[1]; [4],7038.9 nmol·h/L
same,CI_pred,[1]; [4],4 mL/h/kg
same,Cmax,[1]; [4],461 nM
same,HL_Lambda_z,[1]; [4],28.5 h
same,Tmax,[1]; [4],1.98 min
same,Vss_pred,[1]; [4],0.153 L/kg
same,Kd,[3],74.3 nM
same,Koff HSA,[3],0.00889 s⁻¹
same,Kon HSA,[3],120000 M⁻¹ s⁻¹
B3,Kd,[2],367 nM
same,Koff MSA,[2],0.0335 s⁻¹
same,Kon MSA,[2],91240 M⁻¹ s⁻¹
same,AUCINF_pre,[1]; [5],29383.7 nmol·h/L
same,AUClast,[1]; [5],23892.0 h*hr*nmol/L
same,HL_Lambda_z,[1]; [5],30.5 h
same,AUC_%Back_Ext_pre,[1]; [6],0%
same,AUC_%Extrap_Pred,[1]; [6],19%
same,Cl_pred,[1]; [6],1.2 mL/h/kg
same,Cmax,[1]; [6],1330 nM
same,Tmax,[1]; [6],1.98 min
same,Vss_pred,[1]; [6],0.048 L/kg
same,AUCINF_pred,[1]; [7],2.4051 µM·h
same,AUC_% Back_Ext_pred,[1]; [7],0%
same,AUC_% Extrap_pred,[1]; [7],3%
same,AUClast,[1]; [7],2343.4 nmol·h/L
same,CI_pred,[1]; [7],1.4 mL/h/kg
same,Cmax,[1]; [7],88.3 nM
same,HL_Lambda_z,[1]; [7],32.8 h
same,Tmax,[1]; [7],1.98 min
same,Vss_pred,[1]; [7],0.066 L/kg
same,AUCINF_pred,[1]; [4],29.3837 µM·h
same,AUC_% Back_Ext_pred,[1]; [4],0%
same,AUC_% Extrap_pred,[1]; [4],19%
same,AUClast,[1]; [4],23892.0 nmol·h/L
same,CI_pred,[1]; [4],1.2 mL/h/kg
same,Cmax,[1]; [4],1330 nM
same,HL_Lambda_z,[1]; [4],30.5 h
same,Tmax,[1]; [4],1.98 min
same,Vss_pred,[1]; [4],0.048 L/kg
same,AUCINF_pre,[1]; [8],7.0 nmol·h/L
same,AUC_%Back_Ext_pre,[1]; [8],0%
same,AUC_%Extrap_Pred,[1]; [8],28%
same,AUClast,[1]; [8],5.0 h*hr*nmol/L
same,Cl_pred,[1]; [8],4.9 mL/h/kg
same,Cmax,[1]; [8],0.29 nM
same,HL_Lambda_z,[1]; [8],39.9 h
same,Tmax,[1]; [8],1.98 min
same,Vss_pred,[1]; [8],0.267 L/kg
same,AUCINF_pre,[1]; [9],101.0 nmol·h/L
same,AUC_%Back_Ext_pre,[1]; [9],0%
same,AUC_%Extrap_Pred,[1]; [9],3%
same,AUClast,[1]; [9],98.3 h*hr*nmol/L
same,Cl_pred,[1]; [9],3.4 mL/h/kg
same,Cmax,[1]; [9],3.7 nM
same,HL_Lambda_z,[1]; [9],33.1 h
same,Tmax,[1]; [9],1.98 min
same,Vss_pred,[1]; [9],0.157 L/kg
same,AUCINF_pre,[1]; [10],2405.1 nmol·h/L
same,AUC_%Back_Ext_pre,[1]; [10],0%
same,AUC_%Extrap_Pred,[1]; [10],3%
same,AUClast,[1]; [10],2343.4 h*hr*nmol/L
same,Cl_pred,[1]; [10],1.4 mL/h/kg
same,Cmax,[1]; [10],88.3 nM
same,HL_Lambda_z,[1]; [10],32.8 h
same,Tmax,[1]; [10],1.98 min
same,Vss_pred,[1]; [10],0.066 L/kg
same,Kd,[3],75 nM
same,Koff HSA,[3],0.00923 s⁻¹
same,Kon HSA,[3],123000 M⁻¹ s⁻¹
B4,Kd,[2],507 nM
same,Koff MSA,[2],0.0378 s⁻¹
same,Kon MSA,[2],74680 M⁻¹ s⁻¹
same,AUCINF_pred,[1]; [4],14.4943 µM·h
same,AUC_% Back_Ext_pred,[1]; [4],0%
same,AUC_% Extrap_pred,[1]; [4],2%
same,AUClast,[1]; [4],14243.6 nmol·h/L
same,CI_pred,[1]; [4],2.3 mL/h/kg
same,Cmax,[1]; [4],1440 nM
same,HL_Lambda_z,[1]; [4],12.7 h
same,Tmax,[1]; [4],1.98 min
same,Vss_pred,[1]; [4],0.035 L/kg
same,Kd,[3],103 nM
same,Koff HSA,[3],0.00924 s⁻¹
same,Kon HSA,[3],89500 M⁻¹ s⁻¹
B5,serum half-life,[1]; 1 mg/kg i.v.,about 145 hours
same,AUCINF_pre,[1]; [5],11918.3 nmol·h/L
same,AUClast,[1]; [5],6636.1 h*hr*nmol/L
same,HL_Lambda_z,[1]; [5],145.8 h
same,AUC_%Back_Ext_pre,[1]; [6],0%
same,AUC_%Extrap_Pred,[1]; [6],44%
same,Cl_pred,[1]; [6],0.6 mL/h/kg
same,Cmax,[1]; [6],130 nM
same,Tmax,[1]; [6],1.98 min
same,Vss_pred,[1]; [6],0.12 L/kg
